Legend:
SeqA(E5,9K) = molecular target: T1, SeqA(E5,9K) (Escherichia coli, UniProt P0AFY8 1-181, E5K;E9K); experiment: EMSA
T1 sequence: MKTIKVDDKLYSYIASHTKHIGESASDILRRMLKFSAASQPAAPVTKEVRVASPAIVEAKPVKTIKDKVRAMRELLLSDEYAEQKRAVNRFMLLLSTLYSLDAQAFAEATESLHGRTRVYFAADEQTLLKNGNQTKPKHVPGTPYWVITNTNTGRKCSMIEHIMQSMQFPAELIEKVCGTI

SeqA(D7K) = molecular target: T2, SeqA(D7K) (Escherichia coli, UniProt P0AFY8 1-181, D7K); experiment: EMSA
T2 sequence: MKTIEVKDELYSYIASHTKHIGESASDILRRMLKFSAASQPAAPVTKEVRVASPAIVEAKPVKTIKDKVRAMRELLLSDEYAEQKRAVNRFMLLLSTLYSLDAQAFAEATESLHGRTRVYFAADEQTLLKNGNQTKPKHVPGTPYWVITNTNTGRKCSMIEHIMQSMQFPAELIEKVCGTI

SeqA [1] = molecular target: T3, SeqA (Escherichia coli, UniProt P0AFY8 1-181); experiment: AFM
T3 sequence: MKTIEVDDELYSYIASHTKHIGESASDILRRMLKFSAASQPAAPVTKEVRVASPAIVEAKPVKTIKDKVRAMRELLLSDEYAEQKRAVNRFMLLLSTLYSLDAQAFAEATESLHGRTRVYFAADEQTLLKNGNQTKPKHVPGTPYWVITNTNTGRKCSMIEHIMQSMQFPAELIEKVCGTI

SeqA(D8K) = molecular target: T4, SeqA(D8K) (Escherichia coli, UniProt P0AFY8 1-181, D8K); experiment: EMSA
T4 sequence: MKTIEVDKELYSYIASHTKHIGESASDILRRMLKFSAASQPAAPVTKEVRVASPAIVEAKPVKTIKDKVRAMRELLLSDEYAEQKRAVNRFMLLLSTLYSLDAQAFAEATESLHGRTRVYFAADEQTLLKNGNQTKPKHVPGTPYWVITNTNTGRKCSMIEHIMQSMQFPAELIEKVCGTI

SeqA(E9K) = molecular target: T5, SeqA(E9K) (Escherichia coli, UniProt P0AFY8 1-181, E9K); experiment: EMSA
T5 sequence: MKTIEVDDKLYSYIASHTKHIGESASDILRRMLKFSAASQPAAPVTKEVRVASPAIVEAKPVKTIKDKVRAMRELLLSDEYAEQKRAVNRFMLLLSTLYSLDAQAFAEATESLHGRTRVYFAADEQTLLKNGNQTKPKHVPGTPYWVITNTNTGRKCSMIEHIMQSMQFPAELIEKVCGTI

SeqA(E5K) = molecular target: T6, SeqA(E5K) (Escherichia coli, UniProt P0AFY8 1-181, E5K); experiment: EMSA
T6 sequence: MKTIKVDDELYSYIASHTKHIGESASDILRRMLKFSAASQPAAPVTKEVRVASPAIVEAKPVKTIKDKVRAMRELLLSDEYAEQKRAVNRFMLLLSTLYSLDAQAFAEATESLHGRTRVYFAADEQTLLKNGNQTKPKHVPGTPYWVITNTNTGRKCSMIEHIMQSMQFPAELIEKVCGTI

SeqA [2] = molecular target: T3, SeqA; experiment: AFM; remark: listed apart in the source
SeqA [3] = molecular target: T3, SeqA; experiment: EMSA
SeqA(T18G) = molecular target: T7, SeqA(T18G) (Escherichia coli, UniProt P0AFY8 1-181, T18G); experiment: EMSA
T7 sequence: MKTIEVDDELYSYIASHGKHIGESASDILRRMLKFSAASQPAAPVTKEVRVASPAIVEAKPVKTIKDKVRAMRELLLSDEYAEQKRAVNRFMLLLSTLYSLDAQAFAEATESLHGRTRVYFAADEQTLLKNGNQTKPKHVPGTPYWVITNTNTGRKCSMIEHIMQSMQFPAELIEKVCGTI

B1: 75 bp, two hemi-sites, 21 bp spacing (dsDNA)
DNA 1: CTGGGTATTAAAAAGAAGATCTATTTATGTTCAGTTCTGATCTGTTCTGTTCTCTTATTAGGCTCGCACTGCCCT
DNA 2: AGGGCAGTGCGAGCCTAATAAGAGAACAGAACAGATCAGAACTGAACATAAATAGATCTTCTTTTTAATACCCAG
modifications: hemi-methylated GATC (N6-methyladenine on one strand; which strand not stated)
binding result (SeqA(E5,9K)): no binding
binding result (SeqA(D7K)): no binding
binding result (SeqA [1]): binds
binding result (SeqA(D8K)): binds
binding result (SeqA(E9K)): binds
binding result (SeqA(E5K)): binds

B2: 75 bp, two hemi-sites, 11 bp spacing (dsDNA)
DNA 1: CTGGGTATTAAAAAGAAGATCTATTTATGATCAGTTCTGTTCTGTTCTGTTCTCTTATTAGGCTCGCACTGCCCT
DNA 2: AGGGCAGTGCGAGCCTAATAAGAGAACAGAACAGAACAGAACTGATCATAAATAGATCTTCTTTTTAATACCCAG
modifications: hemi-methylated GATC (N6-methyladenine on one strand; which strand not stated)
binding result (SeqA [2]): binds

B3: 75 bp, two hemi-sites, 31 bp spacing (dsDNA)
DNA 1: CTGGGTATTAAAAAGAAGATCTATTTATGTTCAGTTCTGTTCTGTTCTGATCTCTTATTAGGCTCGCACTGCCCT
DNA 2: AGGGCAGTGCGAGCCTAATAAGAGATCAGAACAGAACAGAACTGAACATAAATAGATCTTCTTTTTAATACCCAG
modifications: hemi-methylated GATC (N6-methyladenine on one strand; which strand not stated)
binding result (SeqA [2]): binds

B4: 75 bp, two hemi-sites, 16 bp spacing (Fig 2E) (dsDNA)
DNA 1: CTGGGTATTAAAAAGAAGATCTATTTATGTTCAGATCTGTTCTGTTCTGTTCTCTTATTAGGCTCGCACTGCCCT
DNA 2: AGGGCAGTGCGAGCCTAATAAGAGAACAGAACAGAACAGATCTGAACATAAATAGATCTTCTTTTTAATACCCAG
modifications: hemi-methylated GATC (N6-methyladenine on one strand; which strand not stated)
binding result (SeqA [2]): binds

B5: 75 bp, two hemi-sites, 16 bp spacing (Fig 3A) (dsDNA)
DNA 1: CTGGGTATTAAAAAGAAGATCTATTTATTTAGAGATCTGTTCTATTGTGATCTCTTATTAGGATCGCACTGCCCT
DNA 2: AGGGCAGTGCGATCCTAATAAGAGATCACAATAGAACAGATCTCTAAATAAATAGATCTTCTTTTTAATACCCAG
modifications: hemi-methylated GATC (N6-methyladenine on one strand; which strand not stated)
binding result (SeqA [3]): binds
binding result (SeqA(T18G)): binds
